Data from the supplement of paper PMC12042874.
± gives the uncertainty stated by the source.

assay: amyloid nucleation score (Sup35N fusion, yeast selection) (log enrichment); library NNK2; higher = more nucleation; inactive = no reads after selection
Procedure, shortened: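 The nucleation score, computed with DiMSum, is the log enrichment of output over input reads, centred on the mode score of non-aggregating sequences. Sequences with under 100 input reads were dropped. Reads were generated by Illumina sequencing of plasmid inserts from psi-negative yeast with Sup35N fused to peptides of 20 random codons, induced with 100 μM copper sulfate for 24 hours and grown 7 days at 30°C on medium lacking adenine and uracil.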

Row | Substance | amyloid nucleation score
1 | EYEYGGYNSMNLNYIVARSE | 0.218 ± 0.48
2 | TMYFILLCMLLRGFSSGPPP | -1.04 ± 0.78
3 | KVANRYIK | 0.136 ± 0.32
4 | DPVTMLYSF | 0.179 ± 0.32
5 | SSFAARRR | 0.276 ± 0.28
6 | WRIYQDTFCLSIS | 3.87 ± 0.076
7 | QMIFGYQHRAALDIMNGVPD | inactive
8 | FSSRNFNLCRKTYWWCDSYQ | -0.066 ± 1
9 | TRSMSSAPADCVASGT | -0.512 ± 0.76
10 | NQLLTVSWYSL | 2.76 ± 0.091
11 | RLCLRDQYSFGQIVDYKCFD | inactive
12 | ASYRKWNTCPIMYEVSCRYY | inactive
13 | PSVCKWCYMKCRRRTCFSQL | inactive
14 | SIKGGSIEIEMYELESWVQL | -0.791 ± 1.1
15 | GCSVKFIFNHKSGYYIYLLF | -0.822 ± 0.54
16 | RGLTKLSVLFRQNKESYNIV | -0.521 ± 0.76
17 | LTYLVADLL | -0.142 ± 0.79
18 | HTTDFIVLMVRSDASIRLWS | 4.1 ± 0.077
19 | FGIFVNRLCFSIDSYAGNGK | 6.605 ± 0.037
20 | HSTVSLQSGRMNVVASGVIH | 1.62 ± 0.11
21 | LKMGVGCRGRLLWCSLTCMR | 1.46 ± 0.31
22 | YIFSSVNERLCPALNGWHLD | inactive
23 | SCCEGISSVNNLFMRRRGIE | 0.201 ± 0.53
24 | SEPKEVCLVIGGEEYKGVVS | 0.364 ± 0.37
25 | SLCPRYYGF | inactive

Row | Substance | amyloid nucleation score
26 | CLSCANL | 0.486 ± 0.66
27 | LVKCSVSVRGEILRFLRYMA | 0.26 ± 0.22
28 | CVMALVYACRAAHTRPMAYS | inactive
29 | DYDNW | -0.618 ± 1.1
30 | TSYYLDL | -1.31 ± 0.75
31 | LATTVYFGAMGHVS | -1.38 ± 1
32 | SAWVTNIFDNKLCVAVTEFR | 4.04 ± 0.06
33 | DIVQIWCWFRGC | 10.25 ± 0.029
34 | GNVLTVIKAKDGS | -0.606 ± 0.49
35 | YGMKTGVNIFVVDVEMVKRS | 5.93 ± 0.068
36 | RDCICSVYPFAVLMGSQPLA | 9.086 ± 0.063
37 | DTMDSAAFTLHCIVWGYPVG | inactive
38 | VFSYRLLSNPLSVPW | 4.83 ± 0.089
39 | SLNRTTSSLVRW | 6.029 ± 0.037
40 | GHSCLMVNNACSLDGHEESV | 1.16 ± 0.39
41 | KSDTMLRDYKKWVGHELYTR | 0.066 ± 0.54
42 | DKRIGRVCHSLKIVWCTIML | -0.089 ± 0.41
43 | LYDIDWRFRHKDAHQCKVDR | -0.184 ± 1.1
44 | SIDYD | -0.627 ± 0.76
45 | YNMMSKFNIFGYYACKSSWK | 1.27 ± 0.14
46 | GHMQYSYFLDLYSKLFCVFN | 4.52 ± 0.062
47 | QFARGPSGSIMEQVLIDGDV | 0.277 ± 0.64
48 | EIQHRNTAYYRSVSVGPTAV | 0.987 ± 0.67
49 | SNDLTCTYVRIQCWAMEPAS | 5.142 ± 0.039
50 | DSFVIAVLQIIPYTLTQHSK | 1.7 ± 0.085

Row | Substance | amyloid nucleation score
51 | WILVGFIIGTKWVSRPTTDC | 3.61 ± 0.056
52 | MIKHGYQWPCSLCT | 0.219 ± 0.46
53 | PCCFYLRICLCFSNTVEPIG | 4.07 ± 0.046
54 | VYYSNTTTRSCSEMQVVFFF | -1.13 ± 0.41
55 | GCGSPQSTFPRERCQVLVTA | 0.829 ± 0.49
56 | CRLRVDVGECDRGLYALRVW | 1.21 ± 0.48
57 | VKCLGAFGDE | -0.012 ± 1.1
58 | CTRVLW | -0.201 ± 0.32
59 | LWMCKTFYGAGLSPVVK | -0.038 ± 1
60 | MQRTIYFS | 0.767 ± 0.58
61 | VVCEASTCDMLESEWFWAEF | 0.226 ± 0.23
62 | SYACNRYKRMTAQIRNQGGM | 0.225 ± 0.42
63 | NFILLDLLSLAICASRVLWA | 1.56 ± 0.087
64 | YRFAGYVTPRFGYKSHNISL | -1.22 ± 1.1
65 | MTQPEGY | 0.325 ± 0.56
66 | CRGDRFSRSST | -0.217 ± 0.79
67 | FELLPTR | 3.3 ± 0.079
68 | VDAVLND | 0.432 ± 0.29
69 | GFDSDMVPHRSSRAVLC | 1.33 ± 0.46
70 | NNNFMRTR | 2.44 ± 0.066
71 | KGGAARSVWISMCFFKAFYR | -0.358 ± 1
72 | KTFRCRRCGNN | 0.721 ± 0.6
73 | FYGVNVRIRCKH | 0.486 ± 0.66
74 | GLMAWR | 0.154 ± 0.37
75 | MCFFMAREEASRGAKGLAER | 1.66 ± 0.19

Row | Substance | amyloid nucleation score
76 | LAVIGVSRGMGL | 0.716 ± 0.25
77 | SYTCSS | -0.211 ± 0.48
78 | TIFLFLFSMVSVVICLMVLP | -1.31 ± 0.55
79 | VMCFNTMKC | 7.386 ± 0.044
80 | QNESHIH | 6.31 ± 0.079
81 | VGRCTINFIRLRDWVRLRQN | -0.082 ± 0.6
82 | PTLVLKKAVEPTQENGSLTV | 5.767 ± 0.051
83 | LLSPYMLRLMV | -0.299 ± 0.79
84 | FMIMNYNQLCINRCLNGGRV | 9.059 ± 0.044
85 | FLYNFSHIRFVMYNRNESCF | 3.48 ± 0.13
86 | GISCYMAPSGCRHNSVMSLW | 0.611 ± 0.5
87 | DGFVVASISWGSNFLVFFIY | inactive
88 | KYEIRAASARGGSNVCFCIG | 0.691 ± 0.19
89 | NGDLCILLTWATWGSTE | 0.686 ± 0.33
90 | WLYLFKGWSNLDSESFTMTS | -0.943 ± 0.78
91 | DQALGGEMWWL | -0.14 ± 0.45
92 | LNHGNMEYWLSMDVINLSQI | 0.238 ± 0.3
93 | MCFAHVRNFSEW | 1.47 ± 0.15
94 | QCLHSWDWLKSWFVFVGRGE | 3.88 ± 0.066
95 | TFLLAFFIFFLNG | -0.306 ± 0.53
96 | MCRYCLVWYGFLNYSTLTRG | -1.37 ± 0.62
97 | GYVWDVIGKWGTLRILRVSK | -0.498 ± 1.1
98 | MSSINTRPRNDA | -0.645 ± 0.37
99 | AESICSSVRSYGMSSFRDPE | -0.887 ± 0.64
100 | MNDLMYVVLSRCSMIGNCGS | 1.29 ± 0.17

Row | Substance | amyloid nucleation score
101 | SGDFI | inactive
102 | FRLAVFSEFQCFR | 1.9 ± 0.12
103 | GSDQNSCELSRRDIKKCMAL | 0.504 ± 0.33
104 | LVKCRGATCLIVTSDRLLYV | inactive
105 | YASYICIQHYCFFLAYYNML | inactive
106 | NKFKG | 0.19 ± 1.1
107 | VNQLYWILCAYMVLCVGRDA | 4.54 ± 0.093
108 | VFYLSFIFLLWLSGKYLGHW | 1.25 ± 0.1
109 | NLDGCTVIS | 0.774 ± 0.51
110 | IRVRGFPSSHRSV | -0.901 ± 0.78
111 | WSMKGFYL | inactive
112 | MRHMYRPPIVSLHRVAIGFM | -0.906 ± 0.63
113 | SGIALFKPSCSVGVAQFDYE | -0.024 ± 0.45
114 | TKDERFV | 0.218 ± 0.29
115 | ILKGNNSS | -1.2 ± 0.62
116 | VFCINAFRALQTYCCWMYF | 1.91 ± 0.087
117 | MRSTALYDILRRPWFNFSAY | -0.014 ± 0.76
118 | DYVSRKCFRDKWSERSSCRG | 0.085 ± 0.37
119 | SRVEVNALVLISYYPVLDTA | 5.736 ± 0.039
120 | NRQLWYPSINKYFFKSADPL | inactive
121 | GTFKDGMDSA | 3.75 ± 0.14
122 | VRGPIGHLCICSAMSLGWIH | 2.67 ± 0.11
123 | CSCFWCRRRKNYKFLGGCGS | -1.25 ± 1.1
124 | VYTRKCGLAFRVSSGT | 0.574 ± 0.5
125 | TSVASGRNGNSPVHNALAWG | 0.2 ± 0.35

Row | Substance | amyloid nucleation score
126 | QLFVMADNVRESSKTLRTIW | -0.513 ± 0.35
127 | NGVQKVVCQGTRLGCVLGLD | 0.131 ± 0.45
128 | NEFRDIYGFSVSKLPTGGIC | -1.17 ± 0.41
129 | HMMFKSPYRCLLLNLTGYVL | 0.934 ± 0.25
130 | PCISDIFKMDNIYGQQSLFP | -0.266 ± 1.1
131 | YSIYEYG | 1.41 ± 0.15
132 | PKRSCLVLGYNIVITDMQAR | 6.28 ± 0.067
133 | CDSAAFRPYLFSAENLSLYK | 0.53 ± 0.66
134 | SSDLAGQRLSLCWVLCTG | 0.474 ± 0.53
135 | WFGYMALPR | 4.63 ± 0.064
136 | VLIRSSDNWWAEGSGVLGSC | 0.201 ± 1
137 | VKINSTDMSMVQNCNYLIWV | -0.531 ± 1.1
138 | RCAMRVSARMSRSTGISRLR | 1.64 ± 0.15
139 | CMKKWFS | 3.85 ± 0.075
140 | WALYVGGANRFFMCQWVNLG | 2.26 ± 0.13
141 | TSNNVCCARHPI | 1.37 ± 0.29
142 | SPSTAMFGPMYSVCIHCEYL | 7.395 ± 0.051
143 | AHYRR | -0.226 ± 0.45
144 | EFMNDVIILIYLSFKRTILN | -0.541 ± 1.1
145 | YRLAWGH | -0.363 ± 1.1
146 | WSGKRAFNYINGGLGMAKEL | 4.11 ± 0.062
147 | VYYLVSLGLT | 1.91 ± 0.14
148 | LSVSDEVRQV | -0.466 ± 0.79
149 | SIRSVILLCATLTSVGASLS | 2.14 ± 0.14
150 | ASWKFMFNCSKISRRPNTIT | 0.148 ± 1

Row | Substance | amyloid nucleation score
151 | PAWSITLVPLLHTGCSDTKR | 0.582 ± 0.31
152 | LSGLRSFLRRWRGQVKPVLV | -0.133 ± 1
153 | RRRRSGLCRAYVNVLNARTR | 0.79 ± 0.41
154 | GNYISICESFF | -0.177 ± 1
155 | MKPAWYIVNEWLSGTRLECM | -0.035 ± 0.49
156 | DGSHYFIVRDPVNSCLSSWV | -0.668 ± 0.36
157 | CGNSHMYMNAGDFT | -0.293 ± 0.79
158 | FAKCHFSQSARYIY | inactive
159 | SFHLS | -0.019 ± 0.6
160 | WWDRVRLFRYRLCGSKSLMS | 0.429 ± 0.38
161 | HLSGYKLLIKSVYFE | 3.63 ± 0.067
162 | RAVEMVYCKLRMSQDGHLRW | 5.482 ± 0.048
163 | CDVNYL | -0.681 ± 0.3
164 | HTSVLNMTGSGLIPN | -1.82 ± 0.78
165 | FHRNMMVLQCIRRVL | 0.016 ± 1.1
166 | FSFEMDISLWALWGYMRSDL | inactive
167 | VERLYDAYQIF | 0.316 ± 0.4
168 | GINVSYLFIPHVGKICGNYN | 7.151 ± 0.047
169 | SNWCGFSSTIKSESY | inactive
170 | MCVGNYVLRFLALPPSGCNM | -0.806 ± 0.36
171 | TETAL | -1.05 ± 0.61
172 | WSRADDRQWGPRLDNVVVMV | 0.83 ± 0.45
173 | VFPDSIGN | inactive
174 | HDINRMG | 0.391 ± 0.54
